Laboratory results reported in the nanobody polyreactivity screen of Harvey et al. (2022).

Assay: yeast display, Sf9 membrane polyspecificity reagent, FACS + sequencing; frameworks hold sequencing errors
In short: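 A synthetic nanobody library was expressed on Saccharomyces cerevisiae BJ5465 by galactose induction for 36–48 hours. The library was stained for 1 hour at 4 °C with 10% biotinylated, detergent-solubilized Sf9 membrane reagent and enriched with streptavidin microbeads before FACS. Low and high (top ~1%) gates were set on anti-HA fluorescence for expression and streptavidin fluorescence for reagent binding, and each polyreactivity label reflects the gate of origin.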

## QVQLVESGGGLVQAGGSLRLSCAASGSTFGLYAMGWYRQEPGKERELVAAITWRASSTYYADSVKGRFTISRDNAKNTVYLQMNSLKPEDTAVYYCAATWYSRFSRGDYDYWGQGTLVTVSS
  polyreactivity (PSR sort gate): high polyreactivity

## QVQLVESGGGLVQAGGSLRLSCAASGLIFFINDMGWYRQAPGKERELVAAITSGGSTYYADSVKGRFTISRDNAKNTVYLQMNSLKPEDTAVYYCAADSYDWYDYWGQGTQVTVSS
  polyreactivity (PSR sort gate): high polyreactivity

## QVQLEESGGGLVQAGGSLRLSCAASGSICGVYVMGWYRQAPGKERELVASISRGTTTNYADSVKGRFTISRDNAKNTVYLQMNSLKPEDTAVYYCNADIRGFFFQYDYWGQGTQVTVSS
  polyreactivity (PSR sort gate): low polyreactivity

## QVHLVESGGGLVQAGGSLRLSFAASGIILYDYAMGWNRQAPGKEREMVAGINRSGGITYYADSVKGRFTISRDNAKNTVYFQMNSLIPEDTAVYYCNAVFRYGATRSYRYDYWGQGTQVTVSS
  polyreactivity (PSR sort gate): high polyreactivity

## QVQLQESGGGLVQAGGSLRLSCAASGYISHADEMGWNRQAPGKEHELVASISNGGSTNYADSVKGRFTISRDNAKNTVYLQMNSLKSEDTGVYYCAAWTGQVDIHYYWGQGTQVPVSS
  polyreactivity (PSR sort gate): low polyreactivity

## QVQLVESGGGLVQAGGSLRLSCAASGSIFITYAMVWSRQAPGKERELVAAIRDSGDRTYYADSVKGRFTISRDNAKNTVYLQMNSLKPEDTAVYYCAADYFVQVPDYYYASEYGYWGQGTQVTVSS
  polyreactivity (PSR sort gate): low polyreactivity

## QVQLVESAGGLVQAGGILRLSCHASGITFTSYVMGWYRQSPGKERELVAAIRWSGGRTYYADSVKGRFTISRDNAKNTVYLQMNSLKPEDTAVYYCNRVTRSHVDYWGQGTQVTVSS
  polyreactivity (PSR sort gate): high polyreactivity

## QVQLVESGGGLVKARGSLRLSCAASGFTFGSYAMGWYRQAPGKERELVAAITRGSGGTYYADSVKGRFTISRDNAKNTVYVQMNSLKPEDTAVYNCASCSRSRGALRFAHFDYWGQGTQGTVSS
  polyreactivity (PSR sort gate): high polyreactivity

## QVQLVESGVGLVQAGGSLRLSCAASGSIFLHNAMGWYRQAPGKERELVAGITGSGGSTYYADSVKGRFTISRDNAKNTVYLQMNSLKPEDTAVYYCAAERYGYERYYWGQGTQVTVSS
  polyreactivity (PSR sort gate): high polyreactivity

## QVQLVESGGGLVQAGGSLRLSCAASGGIIWAYAMGWYRQAPGKERELVAAISSSTGTTYYADSVKGRFTISRDNAKNTVYLQMNSLKPEDTAVYYCAAYAYIGDYVSYYGGDYWGQGTQVTVSS
  polyreactivity (PSR sort gate): low polyreactivity

## QVQLVESGGALVQAGGSHRLSCAASGSTFATYAMGWYRQAPGNEREFVAVITRGGRTYYADSVKGRFTISRDNAKITVYLQMNSLKPEDTAVYYCAAGSGNFVTRYRYGYWGQGTQVTVSS
  polyreactivity (PSR sort gate): high polyreactivity

## QVQLVESGGGLVQAGGSLRLSCAASGRTFSWYAMGWYRQAPGKERELVAAITSDGSPYYADSVKGRFTISRDNAKNTVYLQMNSLKPEDTAVYYCAADTVYRSYYWGQGTQVTVSS
  polyreactivity (PSR sort gate): low polyreactivity

## QVQLVESGGGLVQAGGSLRLSCAASGSIFGGNAMGWYRPAPGKERELVAGISTSGGSTYYADSVKGRFTISRDNAKNTVYLQMNSLKPEDTAVYYCARGLGTYPQYWWFGTPGLDYWGQGTQVTVSS
  polyreactivity (PSR sort gate): low polyreactivity

## QVQLVESGGGLGQAGGSLRLSCAASGFTFGNYAMGWYRQAPGKERELVAVISYSTGSTNYADSVKGRFTISRDNAKNTVYLQMNSLKPEDTAVYYCAKRYRSYYQGYGYWGQGTQVTVSS
  polyreactivity (PSR sort gate): high polyreactivity

## QGQLVESGGGLVQAGGSLRLSCAASGIIFTANVMGWYRQAPGKERELVAAITRGGNTYYADSVKGRFTISRDNAKNTVYLQMNSLKPEDTAVYYCAAADYTTPVPYGRKGFDYWGQGTQVTVSS
  polyreactivity (PSR sort gate): low polyreactivity

## QVQLVESGGGLVQAGGSLRLNCAASGSIFTGNAMGWYRQAPGKERELVASITTSTDSTYYADSVKGRFTISRDNAKNTVYLQMNRLKTEDTAVYYCAAEYAVAWKYGLYFYFHFDYWGQGTQVTVSS
  polyreactivity (PSR sort gate): low polyreactivity

## QVQLVESGGGLVQAGGSLRLSCAASGSILTVYAMGWYRQAPGKERELVAAITSSGGITYYADSVKGRFTISRDNAKNTVYLQMHSLKPEDTAVYYCAAYGYGSNYRYTGYYYWGQGTQVTVSS
  polyreactivity (PSR sort gate): low polyreactivity

## QVQLVESGGGLVQAGGSLRLSCAASGFIFYYYAMGWYIQAPGKERELVAAIDWDGDRTYYADSVKGRFTISRDNAKNTVYLQMNSLKPEDTAVYYCAAEWPVNFDYWGQGTQVTVSS
  polyreactivity (PSR sort gate): low polyreactivity

## QVQLVESGGGLVQAGGSLRLSCAASGSTFTSNVMGWYRQAPGKERELVAAISQSGGRTYYADSVKGRFTISRDNAKNTVYLQMNSLKPEDTAVYYCAASYVHYHMDYWGQGTQVTVSS
  polyreactivity (PSR sort gate): high polyreactivity

## QVQLVESAGGLVQAGASLRLSCAASGSIFGGYAMGWYRQAPGTERELVAAISSGDSTYYADSVKGRFTISRDNAKNTVYLQMNSLKPEDTAVYYCARRYTRSYYKLGKLNYWGQGTQVTVSS
  polyreactivity (PSR sort gate): high polyreactivity

## QVQLVESGGGLVQAGGSLRLTCAASGRIFRRNAMGGYRQAPGKEREMVATITSGSSTNYADSVKGRFTISRDNAKNTVYLQMHSLKPEDTAVYYCAKLPWKYRVGYYRNQQTYDYWGQGTQVTVSS
  polyreactivity (PSR sort gate): high polyreactivity

## QVQIVESGGGLVQAGGSLRLSCAASGRISVFNAMGWYRQAPGKERELVAAITSGGSTNYADSVKGRFTISRDNAKNTVYLQMNSLKPEDTAVYYCNADVYHSHEPHYDYWGQGTQVTVSS
  polyreactivity (PSR sort gate): low polyreactivity

## QVQLGESGAGLVQAGGSLRLSCAASGRIFLIKAMGCDRQAPGKERELVAAIRRSVGSTYYADSVKGRFTISRDNAKNTVYLQMNSLKPEDTAVYYCATRDYYTYTGRTRYYYWGQGTQVTVSS
  polyreactivity (PSR sort gate): high polyreactivity

## QVQLVESGGGLVQAGGSLRLSCAASGRTFTSYAMGWYRQAPGKERELVAGISSGGSTNYADSVKGRFTISRDNEKNTVYLQMNSLKPEDTEVYYCAAGFSPGTYDAPTLAFDYWGQGTQVTVSS
  polyreactivity (PSR sort gate): low polyreactivity

## QVQLVESGGGLVQAGGSLRLSSAASGITFKAYAMGWYRHAPGKERELVAAISGSGGATYYADSVEGRFTISRDNEKNTVYLQMISLKPEVTAVYYCAARAVSLTGYRFGYWGQGTQVTVSS
  polyreactivity (PSR sort gate): high polyreactivity

## QVHLVESGGGLVHAGGRLRLSCAASGRIFGLNAMGWYRQAPGKERELVAAIDIIGGSTYYADSVKGRFTISRDNAKNTVYLQMNSLIPEDTAVFYCAAEADFWRFVEFDYWGQGTQVTVSS
  polyreactivity (PSR sort gate): low polyreactivity

## QVQLVESGGGLVQAGGSLRLSCAASGFIFGDYAMGWYRQAPGKERELVAAISRSGGRTYYADSVKGRFTISRDNAKNTVYLQMNSLKPEDTAVYYCAKSSLNIYEYWGQGTQVTVSS
  polyreactivity (PSR sort gate): high polyreactivity

## QVQLVESGGGLVQAGGSLRLSCAASGRTFPYNFMGWYRQAPGKERELVAGITGSGDSTFYADSVKGRFTISRDNAKNTVYLQMNSLKPEDTAVYYCAARYRTLNDGYNRNYWGQGTQVTVSS
  polyreactivity (PSR sort gate): low polyreactivity

## QFQLVESGRGLVQAGGGLRLSCAASGLTFGYYTMGWYRQAPGKERELVAAINYSGGSTYYADSVKGRFTISRDNAKNTVYLQMNCLKPEDSAVYYCAAEGPVYTTYEYWGQGNQVTVSS
  polyreactivity (PSR sort gate): low polyreactivity

## QDQLVESGGGLVQAGGTLRLSCAATGSTFTNYAMGWYRQAPGKERELVAALTSVGSTYYADSVKGRFTISRDNAKNTVYLQTNSLKAEDTAVYYCNVVYRDQYNYWGQGTQVTVSS
  polyreactivity (PSR sort gate): low polyreactivity

## QVQLVESGGGLVQAGGSLRLSCADSGRIFASYAMGWYRQAPRKERELVAAISWRGGTTYYADSVKGRFTSSRDNAKNTVYLQMNSLKPEDTAVYYCATTSSLGSWGYDYWGQGTQVTVSS
  polyreactivity (PSR sort gate): high polyreactivity

## QVQLVESGGGLVQAGGSLRLSCAASGYIFPYNAMGWYRQAPGKERELVATITWTGGSTYYADSVKGRFTISRDNAKNSVYLQMNSLKPEDTAVYYCAADLSIRYDHEYGYWGKGTQVTVSS
  polyreactivity (PSR sort gate): low polyreactivity

## QVQLVESGGGLVQAGGSLRLSCAASGRTFVKNAMGWYRQAPGKERELVAAISRTGSTNYADSVKGRFTISRDNAKNTVYLQMNSLKPEDTAVYYCAAVRYDYWGQGTQVTVSS
  polyreactivity (PSR sort gate): low polyreactivity

## QVQLVESGGALVQAGGSLRLSCAASGSTFFINAMGWYRQAPGKERELVAAITSTDSTTYADSVKGRFTISRDNAKNTVYLQMNSLKPEDTAVYYCAKESIGQDPVSGAWARHEYDYWGQGTQVTVSS
  polyreactivity (PSR sort gate): low polyreactivity

## QVQLVESGGGLVQAGGSLGLSCAASGYIFGIYAMGWYRQAAGKERELVAAISSDSTYYADSVKGRFTISRDNAKNTVYLQMNSLKPEDTAVYYCAPYWFNQDYEFEYWGQGTQVTVSS
  polyreactivity (PSR sort gate): high polyreactivity

## QVQLVESGGGLVQAGGSLRLSCAASGSIFGYYTMGLYRQAPGKERELVAAITSGGSTNYADSVKGRFTISRDNAKNTVYLQMNSLKPEDTAVYYCAKVSYYPWRYDYWGQGTQVTVSS
  polyreactivity (PSR sort gate): low polyreactivity

## QVQLVESGGGLVQAGGSLRLSCAASGFTFRYYAMGWYRQAPGKERELVAGISWRGGSTNYADSVKGRFTISRDNAKNTVYLQMNSLKPEDTAVYYCNAVSYSFPIHRVRPTWYDYWGQGTQVTVSS
  polyreactivity (PSR sort gate): high polyreactivity

## QVQLVESGRGLVQAGGSLRLSCAASGIIFVSYMGWYRQAPGKERELVAAIRWSGGRTYYADSVKGRFTISRDNAKNTVYLQMNSLNPVDTAVYYCAADALRKPKIALYDYWGQGTQVTVSS
  polyreactivity (PSR sort gate): high polyreactivity

## QVQLVESGGGLVQAGGSIRLSCAASGSIFYYGLGWYRQAPGKERELVAAITRGGSTYYADSVKGRFTISRDNAKNTVYLQMNSLKPEDTAVYYCAKYPVGGYDYWGQGTQVTVSS
  polyreactivity (PSR sort gate): low polyreactivity

## QVQLVESGGGLVQAGGSLRLSCAASGSILGRYAMGGYRQAPGKERELVASITRRAGTTYYADSVKGRFTISRDNAKNTVYLQKNSLKPEATAVYYCAARAYTNYYYWGQGTQVTVSS
  polyreactivity (PSR sort gate): high polyreactivity

## QVQLVESGGGLVQAGGSLRLSCAASGFNFDYNAMGWYRQAPGKERELVAAISWSGGRTYYADSVKGRFTISRDNAKNTVYLQMNSLKPEDTAVYYCAARARNYPPYNYWGQGTQVTVSS
  polyreactivity (PSR sort gate): high polyreactivity

## QVQHVESGGGLVQAGGSLRLSCAASGSTFDDNVMGWYRQAPGKERELVAAISSSGGSTYYADSVKGRFTISRDNAKNTVYLQMNSLKPEDTAVYYCNAVYFGLWGYYARRSYNYWGQGTQVTASS
  polyreactivity (PSR sort gate): low polyreactivity

## QDQLVESGGGLVQAGGSLRLSCDASGSIFEQNAMGWYRPAPGKERELVAAISSGSTNYADSVKGRFTISRDNAKNTVYLQMNSLKPEDTAVYYCAKRWRRRFVDVWSLYDYWGQGTQVTVSS
  polyreactivity (PSR sort gate): low polyreactivity
